Where two headings read alike, the source gives them in different places.
Columns and labels:
[1] = molecular target: T1, wild type full-length cynomolgus monkey CD96 isoform 2 expressed on CHO cells (cynomolgus monkey, UniProt A0A2K5TWV6 22-569); experiment: flow cytometry, cynomolgus CD96 (isoform 2) CHO cells, 1 experiment
T1 construct: whole, on cells; also called cynomolgus CD96-CHO cells; cynomolgus CD96-CHO (isoform 2)
T1 sequence: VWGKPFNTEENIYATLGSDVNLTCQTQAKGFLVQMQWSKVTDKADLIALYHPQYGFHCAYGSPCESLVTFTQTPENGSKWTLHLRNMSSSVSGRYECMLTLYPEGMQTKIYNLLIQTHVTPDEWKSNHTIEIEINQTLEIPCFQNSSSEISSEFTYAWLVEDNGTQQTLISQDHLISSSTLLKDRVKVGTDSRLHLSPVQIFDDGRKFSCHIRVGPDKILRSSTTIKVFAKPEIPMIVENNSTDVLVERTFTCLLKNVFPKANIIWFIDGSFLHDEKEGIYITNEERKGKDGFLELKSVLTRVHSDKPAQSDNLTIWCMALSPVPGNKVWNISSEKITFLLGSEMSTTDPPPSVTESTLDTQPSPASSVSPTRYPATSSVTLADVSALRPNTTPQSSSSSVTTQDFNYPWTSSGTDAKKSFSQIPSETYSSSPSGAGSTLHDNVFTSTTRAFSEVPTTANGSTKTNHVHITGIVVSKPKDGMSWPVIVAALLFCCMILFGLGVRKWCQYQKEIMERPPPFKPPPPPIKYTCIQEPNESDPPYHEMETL

[2] = molecular target: T2, wild type full-length cynomolgus monkey TIGIT expressed on CHO cells (cynomolgus monkey, UniProt A0A7N9I9V4 89-312); experiment: flow cytometry on CHO cells expressing cynomolgus TIGIT, PE anti-human IgG Fc detection
T2 construct: whole, on cells; also called cynomolgus TIGIT-CHO cells
T2 sequence (A0A7N9I9V4 entry or part of it): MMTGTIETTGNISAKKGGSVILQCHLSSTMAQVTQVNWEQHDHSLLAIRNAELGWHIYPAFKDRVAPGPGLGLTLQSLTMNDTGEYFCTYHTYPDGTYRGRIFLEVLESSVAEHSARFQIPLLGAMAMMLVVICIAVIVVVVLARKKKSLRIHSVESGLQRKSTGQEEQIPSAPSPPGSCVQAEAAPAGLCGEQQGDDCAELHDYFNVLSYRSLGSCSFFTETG

[3] = molecular target: T2, wild type full-length cynomolgus monkey …; experiment: flow cytometry, blocking of human CD155-Fc-PE binding to CHO cells expressing cynomolgus TIGIT
[4] = molecular target: T3, full-length ECD of human TIGIT (His-tagged) (human); experiment: SPR Biacore T200, Protein A capture, 1:1 model, experiment #1
T3 construct: also called His-tagged human TIGIT; human TIGIT extracellular domain
T3 chain: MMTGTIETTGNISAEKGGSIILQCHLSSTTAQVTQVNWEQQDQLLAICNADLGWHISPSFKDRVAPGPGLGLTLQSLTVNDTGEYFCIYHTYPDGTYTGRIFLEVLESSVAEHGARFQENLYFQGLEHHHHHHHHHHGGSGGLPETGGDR
Protocol: Briefly, surface plasmon resonance experiments were performed using a Biacore T200 instrument, and the association rate (kₐ), dissociation rate (kd), and dissociation constant (KD) were calculated from each experiment using a 1:1 binding model with Biacore T200 Evaluation Software.
Multispecific molecules were captured using a 30-sec injection at a flow rate of 10 μl/min to reach about 1000 resonance units (RUs). […] The sensor chip was regenerated between cycles with two 30-sec injections of 10 mM glycine, pH 1.5. Sensorgrams were evaluated and fit to a simple Langmuir 1:1 interaction model using the global data analysis option of BIAevaluation 3.0 software. Data quality was verified by visually inspecting deviations and curve fitting, and by evaluating the parameters of Rₘₐₓ, Chi2, and Tc.

[5] = molecular target: CD8+ T cells (CD3-stimulated; Day 4); experiment: flow cytometry on activated primary human T cells, gated CD8+, donor 2; PE anti-human IgG detection
Protocol: A total of 8 dilutions ranging from 50 μg/mL to 0.000005 μg/mL were prepared. After four days, the sample plates were centrifuged for two minutes at 2000 rpm, and supernatants were discarded. Samples were blocked with FcγR Block prepared in FACs buffer at 5 μL per 100 μL test for 10 minutes. Sample plates were then centrifuged for two minutes at 2000 rpm, and the supernatant was discarded. The cells were then re-suspended in 100 μL of anti-TIGIT×CD96 multispecific molecule or a relevant isotype control at the concentrations shown in FIGS. 26A-26F. Sample plates were incubated for 30 minutes at 4° C. Cells were washed by addition of cold sample buffer and centrifuged for two minutes at 2000 rpm, and the supernatant was discarded. This wash was repeated once.
Cells were then resuspended in a cocktail of fluorescently labeled antibodies. A cocktail of fluorescently labeled antibodies sufficient for all samples was prepared in FACs buffer. 100 μL of antibody per well was then added to a round-bottom 96-well plate. […]
(§1) Antibody binding was measured by flow cytometry using a BD LSR Fortessa Flow Cytometer. […] 100,000 events were recorded for each sample. Samples were analyzed by sequentially gating on the following populations: FSC-A vs. SSC-A, FSC-H vs. FSC-A, SSC-A vs. LIVE/DEAD, CD4 vs. CD8, and SSC vs. CD25. Mean fluorescence intensity (MFI) was calculated.

[6] = molecular target: CD8+ T cells (CD3-stimulated; Day 4); experiment: as above; remark: listed apart in the source
Protocol: A total of 8 dilutions ranging from 50 μg/mL to 0.000005 μg/mL were prepared. After four days, the sample plates were centrifuged for two minutes at 2000 rpm, and supernatants were discarded. Samples were blocked with FcγR Block prepared in FACs buffer at 5 μL per 100 μL test for 10 minutes. Sample plates were then centrifuged for two minutes at 2000 rpm, and the supernatant was discarded. […] Sample plates were incubated for 30 minutes at 4° C. Cells were washed by addition of cold sample buffer and centrifuged for two minutes at 2000 rpm, and the supernatant was discarded. This wash was repeated once.
Cells were then resuspended in a cocktail of fluorescently labeled antibodies. A cocktail of fluorescently labeled antibodies sufficient for all samples was prepared in FACs buffer. 100 μL of antibody per well was then added to a round-bottom 96-well plate. The sample plate was incubated for 20 minutes on ice. Cells were washed by addition of cold sample buffer, centrifuged for two minutes at 2000 rpm, and supernatants discarded. […]
as §1

[7] = molecular target: T4, wild type full-length human TIGIT expressed on cells (human, UniProt Q495A1 22-244); experiment: flow cytometry, dual binding: CHO hu-TIGIT cells with antibody and soluble huCD96-His, Alexa Fluor 488 anti-His detection
T4 construct: whole, on cells; also called human TIGIT-CHO; human TIGIT CHO cells
T4 sequence (looked up): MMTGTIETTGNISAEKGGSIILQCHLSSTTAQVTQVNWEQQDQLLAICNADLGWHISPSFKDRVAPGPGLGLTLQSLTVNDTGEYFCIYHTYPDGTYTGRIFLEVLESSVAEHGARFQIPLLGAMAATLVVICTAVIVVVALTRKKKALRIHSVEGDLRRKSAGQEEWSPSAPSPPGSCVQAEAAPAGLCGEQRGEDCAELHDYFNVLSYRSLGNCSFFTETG
Excerpt: Cells were centrifuged at 300 g for five minutes.
Antibodies were serially diluted 1-to-3 in FACS buffer.

[8] = molecular target: T5, full-length human FcγRIIIa variant V/V expressed on CHO cells (human, UniProt P08637 17-254); experiment: flow cytometry, human FcγRIIIa (V/V) CHO cells, 2 experiments
T5 construct: whole, on cells; also called human FcγRIIIa-CHO (variant V/V); human FcγRIIIa (V/V) CHO cells
T5 sequence (P08637 other isoform, or with tags, fused parts or gaps mutant limits assumed): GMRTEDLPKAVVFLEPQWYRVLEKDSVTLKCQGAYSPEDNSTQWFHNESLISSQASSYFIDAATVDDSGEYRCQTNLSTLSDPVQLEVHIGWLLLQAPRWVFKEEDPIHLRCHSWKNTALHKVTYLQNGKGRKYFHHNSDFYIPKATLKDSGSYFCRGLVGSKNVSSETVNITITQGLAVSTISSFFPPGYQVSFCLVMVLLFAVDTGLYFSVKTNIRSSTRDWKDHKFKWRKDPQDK
Protocol: For the antibody binding assay, a frozen aliquot of human FcγRIIIa-CHO cells (variant V/V or variant F/F) was thawed at 37° C. and then transferred to a tube containing DPBS supplemented with 0.5% Bovine Serum Albumin and 0.05% Sodium Azide (FACS Buffer). Cells were centrifuged at 300 g for five minutes. The supernatant was discarded, and cells resuspended in FACS buffer were seeded in a 96-well U-bottom tissue culture plate at a density of 2×10⁵ cells per well in 50 μL. In a separate microplate, a 2× concentrated intermediate stock of each antibody was prepared. Antibodies were serially diluted 1-to-4 in FACS buffer. A total of 11 working dilutions ranging from 60 μg/mL to 0.000057 μg/mL were prepared. Fifty microlitres of each dilution were then transferred to the microplate containing human FcγRIIIa-CHO (variant V/V or variant F/F) cells. The cells were then incubated for 45 minutes at 4° C. […] After a 30-minute incubation on ice, the cells were washed twice with cold FACS Buffer, and the cells were analyzed by flow cytometry (BD LSR Fortessa Flow Cytometer). The data were analyzed using the FlowJo software by sequentially gating the FSC-A vs. SSC-A, and SSC-H vs. SSC-A. Mean fluorescence intensity (MFI) values for PE were calculated, and the data were plotted by GraphPad Prism software.

B1: anti-TIGIT×CD96 multispecific molecule BA123 (bispecific antibody, human IgG1, kappa, lambda)
heavy 1: QVQLVQSGAEVKKPGASVKVSCKASGYTFTSYGISWVRQAPGQGLEWMGWISAYNANTNYAQKLQGRVTMTTDTSTSTAYMELRSLRSDDTAVYYCARSAGVLGGMDVWGRGTLVTVSSASTKGPSVFPLAPSSKSTSGGTAALGCLVKDYFPEPVTVSWNSGALTSGVHTFPAVLQSSGLYSLSSVVTVPSSSLGTQTYICNVNHKPSNTKVDKRVEPKSCDKTHTCPPCPAPELLGGPDVFLFPPKPKDTLMISRTPEVTCVVVDVSHEDPEVKFNWYVDGVEVHNAKTKPREEQYNSTYRVVSVLTVLHQDWLNGKEYKCKVSNKALPAPIEKTISKAKGQPREPQVYTLPPSREEMTKNQVSLSCAVKGFYPSDIAVEWESNGQPENNYKTTPPVLDSDGSFFLVSKLTVDKSRWQQGNVFSCSVMHEALHNHYTQKSLSLSPG
light 1: not shown
heavy 2: EVQLVQSGAEVKKPGSSVKVSCKASGYTFASYGISWVRQAPGQGLEWMGGITPFFNRVDVAEKFQGRVTITADKSTSTAYIELSSLRSEDTAVYYCARDLRRGGVGDAFDIWGRGTLVTVSSASTKGPSVFPLAPSSKSTSGGTAALGCLVKDYFPEPVTVSWNSGALTSGVHTFPAVLQSSGLYSLSSVVTVPSSSLGTQTYICNVNHKPSNTKVDKRVEPKSCDKTHTCPPCPAPELLGGPDVFLFPPKPKDTLMISRTPEVTCVVVDVSHEDPEVKFNWYVDGVEVHNAKTKPREEQYNSTYRVVSVLTVLHQDWLNGKEYKCKVSNKALPLPEEKTISKAKGQPREPQVYTLPPSREEMTKNQVSLWCLVKGFYPSDIAVEWESNGQPENNYKTTPPVLDSDGSFFLYSKLTVDKSRWQQGNVFSCSVMHEALHNHYTQKSLSLSPG
light 2: QSALTQPRSVSGSPGQSVTISCTGTSPDVGSHAYRSWYQQHPGKAPKLMIYEVSYRPSGVSNRFSGSKSGNTASLTISGLQAEDEADYYCSSYPPSSATVFGAGTKLTVLGQPKAAPSVTLFPPSSEELQANKATLVCLISDFYPGAVTVAWKADSSPVKAGVETTTPSKQSNNKYAASSYLSLTPEQWKSHRSYSCQVTHEGSTVEKTVAPTEC
notes: copies: 1 + 1 + 1 + 1
[1]
  EC50: 1.04 µg/mL
[2]
  EC50 (read off the curve): ~0.2 µg/mL
[3]
  IC50 (read off the curve): ~2 µg/mL

B2: anti-TIGIT×CD96 multispecific molecule BA127 (bispecific antibody, human IgG1, kappa, lambda)
heavy 1: QVQLVQSGAEVKKPGASVKVSCKASGYTFTTYALHWVRQAPGQRLEWMGWINTGSGDTKYSQKFQGRVTITRDTSASTAYMELSSLRSEDTAVYYCARSLGVYYGMDVWGQGTLVTVSSASTKGPSVFPLAPSSKSTSGGTAALGCLVKDYFPEPVTVSWNSGALTSGVHTFPAVLQSSGLYSLSSVVTVPSSSLGTQTYICNVNHKPSNTKVDKRVEPKSCDKTHTCPPCPAPELLGGPDVFLFPPKPKDTLMISRTPEVTCVVVDVSHEDPEVKFNWYVDGVEVHNAKTKPREEQYNSTYRVVSVLTVLHQDWLNGKEYKCKVSNKALPAPIEKTISKAKGQPREPQVYTLPPSREEMTKNQVSLSCAVKGFYPSDIAVEWESNGQPENNYKTTPPVLDSDGSFFLVSKLTVDKSRWQQGNVFSCSVMHEALHNHYTQKSLSLSPG
light 1: not shown
heavy 2: EVQLVQSGAEVKKPGSSVKVSCKASGYTFASYGISWVRQAPGQGLEWMGGITPFFNRVDVAEKFQGRVTITADKSTSTAYIELSSLRSEDTAVYYCARDLRRGGVGDAFDIWGRGTLVTVSSASTKGPSVFPLAPSSKSTSGGTAALGCLVKDYFPEPVTVSWNSGALTSGVHTFPAVLQSSGLYSLSSVVTVPSSSLGTQTYICNVNHKPSNTKVDKRVEPKSCDKTHTCPPCPAPELLGGPDVFLFPPKPKDTLMISRTPEVTCVVVDVSHEDPEVKFNWYVDGVEVHNAKTKPREEQYNSTYRVVSVLTVLHQDWLNGKEYKCKVSNKALPLPEEKTISKAKGQPREPQVYTLPPSREEMTKNQVSLWCLVKGFYPSDIAVEWESNGQPENNYKTTPPVLDSDGSFFLYSKLTVDKSRWQQGNVFSCSVMHEALHNHYTQKSLSLSPG
light 2: QSALTQPRSVSGSPGQSVTISCTGTSPDVGSHAYRSWYQQHPGKAPKLMIYEVSYRPSGVSNRFSGSKSGNTASLTISGLQAEDEADYYCSSYPPSSATVFGAGTKLTVLGQPKAAPSVTLFPPSSEELQANKATLVCLISDFYPGAVTVAWKADSSPVKAGVETTTPSKQSNNKYAASSYLSLTPEQWKSHRSYSCQVTHEGSTVEKTVAPTEC
notes: Anti-CD96 arm = BA139, anti-TIGIT arm = BA150; copies: 1 + 1 + 1 + 1
[4]
  Kd: 0.584 nM
  koff: 0.000356 s⁻¹
  kon: 610000 M⁻¹ s⁻¹
[5]
  EC50 (read off the curve): ~0.3 µg/mL
[6]
  EC50 (read off the curve): ~0.06 µg/mL
[7]
  EC50 (read off the curve): ~0.3 µg/mL

B3: anti-TIGIT monospecific antibody BA148 (antibody, human IgG1, lambda)
heavy: EVQLVQSGAEVKKPGSSVKVSCKASGYTFASYGISWVRQAPGQGLEWMGGITPFFNRVDVAEKFQGRVTITADKSTSTAYIELSSLRSEDTAVYYCARDLRRGGVGDAFDIWGRGTLVTVSSASTKGPSVFPLAPSSKSTSGGTAALGCLVKDYFPEPVTVSWNSGALTSGVHTFPAVLQSSGLYSLSSVVTVPSSSLGTQTYICNVNHKPSNTKVDKRVEPKSCDKTHTCPPCPAPELLGGPDVFLFPPKPKDTLMISRTPEVTCVVVDVSHEDPEVKFNWYVDGVEVHNAKTKPREEQYNSTYRVVSVLTVLHQDWLNGKEYKCKVSNKALPLPEEKTISKAKGQPREPQVYTLPPSREEMTKNQVSLTCLVKGFYPSDIAVEWESNGQPENNYKTTPPVLDSDGSFFLYSKLTVDKSRWQQGNVFSCSVMHEALHNHYTQKSLSLSPGK
light: QSALTQPRSVSGSPGQSVTISCTGTSPDVGSHAYRSWYQQHPGKAPKLMIYEVSYRPSGVSNRFSGSKSGNTASLTISGLQAEDEADYYCSSYPPSSATVFGAGTKLTVLGQPKAAPSVTLFPPSSEELQANKATLVCLISDFYPGAVTVAWKADSSPVKAGVETTTPSKQSNNKYAASSYLSLTPEQWKSHRSYSCQVTHEGSTVEKTVAPTEC
notes: IgG1; also called anti-TIGIT IgG1 antibody BA148
[8]
  EC50: 0.0455 µg/mL

From patent US20240141039A1 (AGENUS, published 2024)
